In this assay the target is T1, Rrm3p-Myc (S. cerevisiae, UniProt P38766 1-723).
T1 construct: Rrm3p DNA helicase, S. cerevisiae; source: expressed from a low copy plasmid in the POL30-0 and mutant pol30 yeast strains, in lysate
T1 sequence (looked up): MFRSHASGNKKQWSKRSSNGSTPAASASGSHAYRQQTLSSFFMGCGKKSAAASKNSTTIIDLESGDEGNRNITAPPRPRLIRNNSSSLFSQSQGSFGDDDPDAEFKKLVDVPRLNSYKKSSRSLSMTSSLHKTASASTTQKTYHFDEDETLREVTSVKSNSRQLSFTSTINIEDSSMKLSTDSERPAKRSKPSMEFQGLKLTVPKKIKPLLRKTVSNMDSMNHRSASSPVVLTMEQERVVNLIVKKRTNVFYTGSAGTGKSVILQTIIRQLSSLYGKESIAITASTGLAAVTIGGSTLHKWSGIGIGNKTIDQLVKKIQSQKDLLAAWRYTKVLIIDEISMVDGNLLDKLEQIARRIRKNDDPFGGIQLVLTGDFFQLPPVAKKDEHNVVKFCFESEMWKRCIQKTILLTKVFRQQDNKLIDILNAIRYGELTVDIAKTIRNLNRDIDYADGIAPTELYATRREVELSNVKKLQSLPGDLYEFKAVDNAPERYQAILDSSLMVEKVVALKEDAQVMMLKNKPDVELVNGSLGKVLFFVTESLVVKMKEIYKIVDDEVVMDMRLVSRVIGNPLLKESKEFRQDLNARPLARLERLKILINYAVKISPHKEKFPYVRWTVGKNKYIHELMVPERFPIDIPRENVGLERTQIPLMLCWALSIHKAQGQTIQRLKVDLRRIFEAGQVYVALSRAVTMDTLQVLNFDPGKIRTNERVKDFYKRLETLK
The assay can be described thus: co-IP; Cac1p-FLAG and Rrm3p-Myc from low copy plasmids in the POL30-0 and mutant pol30 strains; α-FLAG or α-Myc precipitation from lysate in IP buffer (150 mM NaCl, 50 mM Tris pH 7.5, 2 mM EDTA), washes with 0.2% Triton X100 + 0.01% SDS, elution with FLAG or Myc peptide, blot with α-PCNA. To be noted: partners not purified.

Experimental findings from publication PMC10585736, “Analyses of POL30 (PCNA) reveal positional effects in transient repression or bi-modal active/silent state at the sub-telomeres of S. cerevisiae” (Epigenetics & Chromatin, 2023) are described below.

B1: pol30-6 mutant Pol30p of the pol30-6 strain (natural protein, S. cerevisiae, UniProt P15873 1-258, looked up)
chain: MLEAKFEEASLFKRIIDGFKDCVQLVNFQCKEDGIIAQAVAASRVLLVSLEIGVEAFQEYRCDHPVTLGMDLTSLSKILRCGNNTDTLTLIADNTPDSIILLFEDTKKDRIAEYSLKLMDIDADFLKIEELQYDSTLSLPSSEFSKIVRDLSQLSDSINIMITKETIKFVADGDIGSGSVIIKPFVDMEHPETSIKLEMDQPVDLTFGAKYLLDIIKGSSLSDRVGIRLSSEAPALFQFDLKSGFLQFFLAPKFNDEE
notes: Pol30p (PCNA), S. cerevisiae, double alanine substitutions at Asp 41 and Asp 42; detected with α-PCNA; also called Pol30-6p; source: expressed in the pol30-6 mutant yeast strain, in lysate
B1: the “fold reduction of co-precipitated Pol30p against wild-type Pol30p” value was determined as 5 fold.

B2: pol30-8 mutant Pol30p of the pol30-8 strain (natural protein, S. cerevisiae, UniProt P15873 1-258, looked up)
chain: MLEAKFEEASLFKRIIDGFKDCVQLVNFQCKEDGIIAQAVDDSRVLLVSLEIGVEAFQEYACAHPVTLGMDLTSLSKILRCGNNTDTLTLIADNTPDSIILLFEDTKKDRIAEYSLKLMDIDADFLKIEELQYDSTLSLPSSEFSKIVRDLSQLSDSINIMITKETIKFVADGDIGSGSVIIKPFVDMEHPETSIKLEMDQPVDLTFGAKYLLDIIKGSSLSDRVGIRLSSEAPALFQFDLKSGFLQFFLAPKFNDEE
notes: Pol30p (PCNA), S. cerevisiae, double alanine substitutions at Arg 61 and Asp 63; detected with α-PCNA; also called Pol30-8p; source: expressed in the pol30-8 mutant yeast strain, in lysate
With B2, the “fold reduction of co-precipitated Pol30p against wild-type Pol30p” value was less than 2 fold.
